Reference: patent publication US20100216715A1 (Novo Nordisk, published 2010)

T1: human beta-Klotho (human, UniProt Q86Z14 1-1044)
T1 sequence (looked up): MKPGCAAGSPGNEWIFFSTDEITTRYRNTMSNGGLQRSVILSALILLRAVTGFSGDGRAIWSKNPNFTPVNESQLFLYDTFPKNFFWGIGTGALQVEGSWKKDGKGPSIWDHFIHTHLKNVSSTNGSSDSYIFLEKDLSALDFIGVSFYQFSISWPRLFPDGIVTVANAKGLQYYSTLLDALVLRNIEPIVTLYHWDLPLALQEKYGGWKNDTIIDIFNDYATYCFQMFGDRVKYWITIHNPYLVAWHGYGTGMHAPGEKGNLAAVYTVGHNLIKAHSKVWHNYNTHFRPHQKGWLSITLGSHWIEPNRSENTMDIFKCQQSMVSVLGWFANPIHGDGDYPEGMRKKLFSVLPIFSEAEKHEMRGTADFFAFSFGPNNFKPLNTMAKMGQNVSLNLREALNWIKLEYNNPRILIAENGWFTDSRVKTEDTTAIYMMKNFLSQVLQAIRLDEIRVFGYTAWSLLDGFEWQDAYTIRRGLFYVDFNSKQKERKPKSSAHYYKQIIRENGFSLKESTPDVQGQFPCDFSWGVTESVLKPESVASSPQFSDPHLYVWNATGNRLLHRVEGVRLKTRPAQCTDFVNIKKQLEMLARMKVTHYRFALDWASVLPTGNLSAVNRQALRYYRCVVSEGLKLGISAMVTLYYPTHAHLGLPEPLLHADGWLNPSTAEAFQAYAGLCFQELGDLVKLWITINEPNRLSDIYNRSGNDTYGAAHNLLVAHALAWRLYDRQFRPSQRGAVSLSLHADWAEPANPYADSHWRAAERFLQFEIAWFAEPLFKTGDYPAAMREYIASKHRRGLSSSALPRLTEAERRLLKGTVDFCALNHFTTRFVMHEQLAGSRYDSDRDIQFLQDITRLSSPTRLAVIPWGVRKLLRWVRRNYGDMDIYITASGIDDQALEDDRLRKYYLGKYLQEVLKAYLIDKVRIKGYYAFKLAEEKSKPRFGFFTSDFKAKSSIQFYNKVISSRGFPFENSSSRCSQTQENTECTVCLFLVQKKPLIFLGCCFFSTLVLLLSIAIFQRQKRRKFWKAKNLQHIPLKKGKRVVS


Biological target: T1, human beta-Klotho
Experiment: cell-based or functional assay

Row | Binder | pERK-HEK293-Beta-klotho without HSA [EC50 (nM)] Median Value [nM]
1 | (S71C, N121Q, L166F, S167G, M168L, 169aT, P171L, S172E, Q173A, G174V, Y179F, A180E, S181K) Ala-FGF21 (ligand) AHPIPDSSPLLQFGGQVRQRYLYTDDAQQTEAHLEIREDGTVGGAADQSPESLLQLKALKPGVIQILGVKTCRFLCQRPDGALYGSLHFDPEACSFRELLLEDGYNVYQSEAHGLPLHLPGQKSPHRDPAPRGPARFLPLPGLPPALPEPPGILAPQPPDVGSSDPFGLVTGLEAVRSPSFEK | 2
2 | (-1A, 71C, 121Q, 166F, 167G, 168L, 169aT, 171L, 172E, 173A, 174V, 179F, 180E, 181K) FGF21 derivative of Example 17 (ligand, S-71-({2-[2-(2-{2-[2-(2-{2-[(S)-4-carboxy-4-(17-carboxy-heptadecanoylamino)-butyrylamino]-ethoxy}-ethoxy)-acetylamino]-ethoxy}-ethoxy)-acetylamino]-ethylcarbamoyl}-methyl) on the thiol of Cys71) AHPIPDSSPLLQFGGQVRQRYLYTDDAQQTEAHLEIREDGTVGGAADQSPESLLQLKALKPGVIQILGVKTCRFLCQRPDGALYGSLHFDPEACSFRELLLEDGYNVYQSEAHGLPLHLPGQKSPHRDPAPRGPARFLPLPGLPPALPEPPGILAPQPPDVGSSDPFGLVTGLEAVRSPSFEK | 3
3 | (-1S, 71C, 166F, 167G, 168L, 169aT, 171L, 172E, 173A, 174V, 179F, 180E, 181K) FGF21 derivative of Example 18 (ligand, S-71-({2-[2-(2-{2-[2-(2-{2-[(S)-4-carboxy-4-(17-carboxy-heptadecanoylamino)-butyrylamino]-ethoxy}-ethoxy)-acetylamino]-ethoxy}-ethoxy)-acetyl-amino]-ethylcarbamoyl}-methyl) on the thiol of Cys71) SHPIPDSSPLLQFGGQVRQRYLYTDDAQQTEAHLEIREDGTVGGAADQSPESLLQLKALKPGVIQILGVKTCRFLCQRPDGALYGSLHFDPEACSFRELLLEDGYNVYQSEAHGLPLHLPGNKSPHRDPAPRGPARFLPLPGLPPALPEPPGILAPQPPDVGSSDPFGLVTGLEAVRSPSFEK | 2.5
4 | (S71C, L166F, S167G, M168L, 169aT, P171L, S172E, Q173A, G174V, Y179F, A180E, S181K) Ser-FGF21 (ligand) SHPIPDSSPLLQFGGQVRQRYLYTDDAQQTEAHLEIREDGTVGGAADQSPESLLQLKALKPGVIQILGVKTCRFLCQRPDGALYGSLHFDPEACSFRELLLEDGYNVYQSEAHGLPLHLPGNKSPHRDPAPRGPARFLPLPGLPPALPEPPGILAPQPPDVGSSDPFGLVTGLEAVRSPSFEK | 2.2
5 | (K56R, K59R, K69R, K122R, L166F, S167G, M168L, 169aT, P171L, S172E, Q173A, G174V, Y179F, A180E, S181R) Ser-FGF21 (ligand) SHPIPDSSPLLQFGGQVRQRYLYTDDAQQTEAHLEIREDGTVGGAADQSPESLLQLRALRPGVIQILGVRTSRFLCQRPDGALYGSLHFDPEACSFRELLLEDGYNVYQSEAHGLPLHLPGNRSPHRDPAPRGPARFLPLPGLPPALPEPPGILAPQPPDVGSSDPFGLVTGLEAVRSPSFER | 3.8
6 | (L166F, S167G, M168L, 169aT, P171L, S172E, Q173A, G174V, Y179F, A180E, S181K) Ser-FGF21 (ligand) SHPIPDSSPLLQFGGQVRQRYLYTDDAQQTEAHLEIREDGTVGGAADQSPESLLQLKALKPGVIQILGVKTSRFLCQRPDGALYGSLHFDPEACSFRELLLEDGYNVYQSEAHGLPLHLPGNKSPHRDPAPRGPARFLPLPGLPPALPEPPGILAPQPPDVGSSDPFGLVTGLEAVRSPSFEK | 1
7 | (K56R, 59R, 69R, 122R, 166F, 167G, 168L, 169aT, 171L, 172E, 173A, 174V, 179F, 180E, 181R) Ser-FGF21 derivative of Example 50 (ligand, N-alpha-1-[2-(2-{2-[2-(2-{2-[(S)-4carboxy-4-(17-carboxy-heptadecanoylamino)-butyrylamino]-ethoxy}-ethoxy)-acetylamino]-ethoxy}-ethoxy)-acetyl] on the N-terminal alpha amino group) SHPIPDSSPLLQFGGQVRQRYLYTDDAQQTEAHLEIREDGTVGGAADQSPESLLQLRALRPGVIQILGVRTSRFLCQRPDGALYGSLHFDPEACSFRELLLEDGYNVYQSEAHGLPLHLPGNRSPHRDPAPRGPARFLPLPGLPPALPEPPGILAPQPPDVGSSDPFGLVTGLEAVRSPSFER | 2
8 | (Q28R, A31 E) Met-FGF21 (ligand) MHPIPDSSPLLQFGGQVRQRYLYTDDAQRTEEHLEIREDGTVGGAADQSPESLLQLKALKPGVIQILGVKTSRFLCQRPDGALYGSLHFDPEACSFRELLLEDGYNVYQSEAHGLPLHLPGNKSPHRDPAPRGPARFLPLPGLPPALPEPPGILAPQPPDVGSSDPLSMVGPSQGRSPSYAS | 1
9 | S71C Met-FGF21 (ligand) MHPIPDSSPLLQFGGQVRQRYLYTDDAQQTEAHLEIREDGTVGGAADQSPESLLQLKALKPGVIQILGVKTCRFLCQRPDGALYGSLHFDPEACSFRELLLEDGYNVYQSEAHGLPLHLPGNKSPHRDPAPRGPARFLPLPGLPPALPEPPGILAPQPPDVGSSDPLSMVGPSQGRSPSYAS | 3
10 | S71C Met-FGF21 derivative of Example 5 (ligand, S-71-[1-(2-{2-[2-(2-{2-[2-(2-{2-[(S)-4-carboxy-4-(19-carboxy-nonadecanoylamino)-butyrylamino]-ethoxy}-ethoxy)-acetylamino]-ethoxy}-ethoxy)-acetylamino]-ethylcarbamoyl}-ethyl)-2,5-dioxo-pyrrolidin-3-yl] on the thiol of Cys71) MHPIPDSSPLLQFGGQVRQRYLYTDDAQQTEAHLEIREDGTVGGAADQSPESLLQLKALKPGVIQILGVKTCRFLCQRPDGALYGSLHFDPEACSFRELLLEDGYNVYQSEAHGLPLHLPGNKSPHRDPAPRGPARFLPLPGLPPALPEPPGILAPQPPDVGSSDPLSMVGPSQGRSPSYAS | 1.1
11 | (M168S) Ser-FGF21 (ligand) SHPIPDSSPLLQFGGQVRQRYLYTDDAQQTEAHLEIREDGTVGGAADQSPESLLQLKALKPGVIQILGVKTSRFLCQRPDGALYGSLHFDPEACSFRELLLEDGYNVYQSEAHGLPLHLPGNKSPHRDPAPRGPARFLPLPGLPPALPEPPGILAPQPPDVGSSDPLSSVGPSQGRSPSYAS | 100
12 | S71C Met-FGF21 derivative of Example 14 (ligand, S-71-({2-[2-(2-{2-[2-(2-{2-[(S)-4-carboxy-4-(17-carboxy-heptadecanoylamino)-butyrylamino]-ethoxy}-ethoxy)-acetylamino]-ethoxy}-ethoxy)-acetylamino]-ethylcarbamoyl}-methyl) on the thiol of Cys71) MHPIPDSSPLLQFGGQVRQRYLYTDDAQQTEAHLEIREDGTVGGAADQSPESLLQLKALKPGVIQILGVKTCRFLCQRPDGALYGSLHFDPEACSFRELLLEDGYNVYQSEAHGLPLHLPGNKSPHRDPAPRGPARFLPLPGLPPALPEPPGILAPQPPDVGSSDPLSMVGPSQGRSPSYAS | 2.9
13 | S71C Met-FGF21 derivative of Example 13 (ligand, S-71-[1-(2-{2-[2-(2-{2-[2-(2-{2-[(S)-4-carboxy-4-(17-carboxy-heptadecanoylamino)-butyrylamino]-ethoxy}-ethoxy)-acetylamino]-ethoxy}-ethoxy)-acetylamino]-ethylcarbamoyl}-ethyl)-2,5-dioxo-pyrrolidin-3-yl] on the thiol of Cys71) MHPIPDSSPLLQFGGQVRQRYLYTDDAQQTEAHLEIREDGTVGGAADQSPESLLQLKALKPGVIQILGVKTCRFLCQRPDGALYGSLHFDPEACSFRELLLEDGYNVYQSEAHGLPLHLPGNKSPHRDPAPRGPARFLPLPGLPPALPEPPGILAPQPPDVGSSDPLSMVGPSQGRSPSYAS | 4.8
14 | (K56R, K59R, K69R, K122R) Met-FGF21 derivative of Example 7 (ligand, N-alpha-1-[2-(2-{2-[2-(2-{2-[(S)-4-carboxy-4-(17-carboxy-heptadecanoylamino)-butyrylamino]-ethoxy}-ethoxy)-acetylamino]-ethoxy}-ethoxy)-acetyl] on the alpha amino group of the N-terminal Met) MHPIPDSSPLLQFGGQVRQRYLYTDDAQQTEAHLEIREDGTVGGAADQSPESLLQLRALRPGVIQILGVRTSRFLCQRPDGALYGSLHFDPEACSFRELLLEDGYNVYQSEAHGLPLHLPGNRSPHRDPAPRGPARFLPLPGLPPALPEPPGILAPQPPDVGSSDPLSMVGPSQGRSPSYAS | 1.4
15 | S71C Met-FGF21 derivative of Examples 6 and 12 (ligand, S-71-({2-[2-(2-{2-[2-(2-{2-[(S)-4-carboxy-4-(19-carboxy-nonadecanoylamino)-butyrylamino]-ethoxy}-ethoxy)-acetylamino]-ethoxy}-ethoxy)-acetylamino]-ethylcarbamoyl}-methyl) on the thiol of Cys71) MHPIPDSSPLLQFGGQVRQRYLYTDDAQQTEAHLEIREDGTVGGAADQSPESLLQLKALKPGVIQILGVKTCRFLCQRPDGALYGSLHFDPEACSFRELLLEDGYNVYQSEAHGLPLHLPGNKSPHRDPAPRGPARFLPLPGLPPALPEPPGILAPQPPDVGSSDPLSMVGPSQGRSPSYAS | 1.5
16 | (des N121) Met-FGF21 (ligand) MHPIPDSSPLLQFGGQVRQRYLYTDDAQQTEAHLEIREDGTVGGAADQSPESLLQLKALKPGVIQILGVKTSRFLCQRPDGALYGSLHFDPEACSFRELLLEDGYNVYQSEAHGLPLHLPGKSPHRDPAPRGPARFLPLPGLPPALPEPPGILAPQPPDVGSSDPLSMVGPSQGRSPSYAS | 1
17 | (K56R, K59R, K69R, N121Q, K122R, L166F, S167G, M168L, 169aT, P171L, S172E, Q173A, G174V, Y179F, A180E, S181R) FGF21 (ligand) HPIPDSSPLLQFGGQVRQRYLYTDDAQQTEAHLEIREDGTVGGAADQSPESLLQLRALRPGVIQILGVRTSRFLCQRPDGALYGSLHFDPEACSFRELLLEDGYNVYQSEAHGLPLHLPGQRSPHRDPAPRGPARFLPLPGLPPALPEPPGILAPQPPDVGSSDPFGLVTGLEAVRSPSFER | 3
18 | (K56R, K59R, K69R, D102E, N121Q, K122R, M168L) GSGSG-FGF21 (ligand) GSGSGHPIPDSSPLLQFGGQVRQRYLYTDDAQQTEAHLEIREDGTVGGAADQSPESLLQLRALRPGVIQILGVRTSRFLCQRPDGALYGSLHFDPEACSFRELLLEEGYNVYQSEAHGLPLHLPGQRSPHRDPAPRGPARFLPLPGLPPALPEPPGILAPQPPDVGSSDPLSLVGPSQGRSPSYAS | 6.6
19 | (-5G, -4S, -3G, -2S, -1G, K56R, 59R, 69R, 102E, 121Q, 122R, 168L) FGF21 derivative of Example 55 (ligand, N-alpha-1-[4-(16-1H-tetrazol-5-yl-hexadecanoylsulfamoyl)-butyryl] on the N-terminal alpha amino group) GSGSGHPIPDSSPLLQFGGQVRQRYLYTDDAQQTEAHLEIREDGTVGGAADQSPESLLQLRALRPGVIQILGVRTSRFLCQRPDGALYGSLHFDPEACSFRELLLEEGYNVYQSEAHGLPLHLPGQRSPHRDPAPRGPARFLPLPGLPPALPEPPGILAPQPPDVGSSDPLSLVGPSQGRSPSYAS | 2
20 | [-5G, -4S, -3G, -2S, -1G, K56R, 59R, 69R, 102E, 121Q, 122R, 168L] FGF21 derivative of Example 52 (ligand, N-alpha-1-[2-(2-{2-[2-(2-{2-[(S)-4-carboxy-4-(17-carboxy-heptadecanoylamino)-butyrylamino]-ethoxy}-ethoxy)-acetylamino]-ethoxy}-ethoxy)-acetyl] on the N-terminal alpha amino group) GSGSGHPIPDSSPLLQFGGQVRQRYLYTDDAQQTEAHLEIREDGTVGGAADQSPESLLQLRALRPGVIQILGVRTSRFLCQRPDGALYGSLHFDPEACSFRELLLEEGYNVYQSEAHGLPLHLPGQRSPHRDPAPRGPARFLPLPGLPPALPEPPGILAPQPPDVGSSDPLSLVGPSQGRSPSYAS | 11
